The record followed here is the nanobody polyreactivity screen of Harvey et al. (2022).

The series is described as follows: yeast display, Sf9 membrane polyspecificity reagent, FACS + sequencing; frameworks hold sequencing errors. An outline of the steps:
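After 36–48 hours of galactose induction, yeast (Saccharomyces cerevisiae BJ5465) displaying a synthetic nanobody library were stained at 4 °C for 1 hour with 10% biotinylated, detergent-solubilized Sf9 membrane reagent. Streptavidin microbeads enriched the stained cells before FACS sorting into low and high (top ~1%) gates on anti-HA and streptavidin fluorescence. Each clone's polyreactivity label reflects its gate of origin.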
On to “QVQLVESGGGLVQAGGSLRLSCAASGRTLNRNAMGWYRQAPGKERELVAAISRRGGSTNYADSVKGRFTISRDNAKNTVYLQMNSLKPEDTAVYYCARVTTVYDGRGFVDVKRGYWGQGTQVTVSS”, for which the “polyreactivity (PSR sort gate)” value is given as “high polyreactivity”.

Turning to “QVQLVESGGGLVQAGGSLRLSCAASGRTLPEYVMGWYRQAPGKERELVAAITTAGSTNYADSVKGRFTISRDNAKNTVYLQMNSLKPEDTAVYYCNAYPASRGPGNPLDDYWGQGTQVTVSS”, the “polyreactivity (PSR sort gate)” value is given as “low polyreactivity”.

With “QVQLVESGGGLVQAGGSLRLSCAASGRTLPKYVMGWYRQAPGKERELVAAISSSGDSTYYADSVKGRFTISRDNAKNTVYLQMNSLKPEDTAVYYCGKYDLNTYGYWGQGTQVTVSS”, the “polyreactivity (PSR sort gate)” value was “low polyreactivity”. For “QVQLVESGGGLVQAGGSLRLSCAASGRTLPSNTMGWYRQAPGTERELVAAISKNGGSTYYADSVKGRFTISRDNAMNTVYLQMNSLKPEDTAVYYCNARYLYGRYRSPLDDYWGQGTQVTVSS” the value was “high polyreactivity”. “QVQLVESGGGLVQAGGSLRLSCAASGRTLPYYMRWYRQAPGKERELVAAITNGDSTYYADSVKGRFTISRDNAQNTVYLQMNSLKPEDTAVYDCAARQKVPPQYWGQGTQVTVSS”: the “polyreactivity (PSR sort gate)” value is “high polyreactivity”. For “QVQLVESGGGLVQAGGSLRLSCAASGRTLQGYAMGWYRQEPGKERELVAAISRGGGSTYADSVKGRFTISRDNAKNTVYLQMNSLKPEDTAVYYCNKKSYYRYYWGQGTQVTVSS” the value was “high polyreactivity”. As for “QVQLVESGGGLVQAGGSLRLSCAASGRTLQIYVMGWYRQAPGKERELVASITGRGGSTYYADSVKGRFTISRDTAKNTVYLQMNSLKPEDTAVYYFARRYYRLDYWGQGTQVTVSS”, the “polyreactivity (PSR sort gate)” value is reported as “high polyreactivity”. As to “QVQLVESGGGLVQAGGSLRLSCAASGRTLRAYAMGWYRQAPGKERELVAAITWSGGSTYYADSVKGRFTISRDTAKNTVYLQMNSLKPEDTAVYYCNARSYPDLYDYWGQGTQVTVSS”, the “polyreactivity (PSR sort gate)” value is “low polyreactivity”. For “QVQLVESGGGLVQAGGSLRLSCAASGRTLRGYAMGWYRQAPGKERELVARITGSGGSTYADSVKGRFTISRDNAKNTVYLQMNSLKPEDTAVYYCAAGYSIYYYYAYTISRVSYDYWGQGTQVTVSS” the value was “high polyreactivity”; for “QVQLVESGGGLVQAGGSLRLSCAASGRTLRINAMGWYRQAPGKERELVAAISRSGGRTYYADSVKGRFTISRDNAKNTVYLQRNSLKPEDTAVYYCATGGVAYNYGWGQYYYWGQGTQVTVSS”, “high polyreactivity”; for “QVQLVESGGGLVQAGGSLRLSCAASGRTLRIYAMGWYRPAPGNERELVAAITGSGGSTDYADSVKGRFTISRDNAKNTVYLQMNILKPEDTAVYYCNAGKTIDYRDGVGYDHWGQGTQVTVSS”, “low polyreactivity”. For “QVQLVESGGGLVQAGGSLRLSCAASGRTLRLYAMGWYRQAPGKERELVAAISSRGRTYYADSVKGRFTISRDNAKNTVYLQMNSLKPEDTAVYYCAVVVYQGFRSKYYYWGQGTQVTVSS” the value was “high polyreactivity”; for “QVQLVESGGGLVQAGGSLRLSCAASGRTLRRYAMGWYRQAPGKERELVADISWRGTSTNYADSVKGRFTISRDNAKNTVYLQMNSLKPEDTAVYYCAAKQTYTRLHYLGPSVWDNYDYWGQGTQVTVSS”, “high polyreactivity”; for “QVQLVESGGGLVQAGGSLRLSCAASGRTLRYYAMGWYRQAPGKERELVATISRAGRTNYADSVKGRFTISRDNAKNTVYLQMNSLKPEDTAVYYCAAGRVVYSYSDNYDYWGQGTQVTVSS”, “high polyreactivity”. For “QVQLVESGGGLVQAGGSLRLSCAASGRTLRYYAMGWYRQAPGKERELVATITGSGGSTYYADSVKGRFTISRDNAKNTVYLQMNSLKPEDTAVYYCNARKVRYPYRWYDYWGQGTQVTVSS” the value was “high polyreactivity”.

In the case of “QVQLVESGGGLVQAGGSLRLSCAASGRTLSANAMGWYRQAPGKERELVATISTRGGRTYYADSVKGRFTISRDNAKNTVYLQMNSLKPEDTAVYYCAVTIRAKYTLKEDYWGQGTQVNVSS”, the “polyreactivity (PSR sort gate)” value was “low polyreactivity”. On to “QVQLVESGGGLVQAGGSLRLSCAASGRTLSFYAMGWYRQAPGKERELVAAISRRGGSTYYADSVKGRFTISRDNAKNTVYLQMNSLKPEDTAVYYCAARRWYPYKNYDYWGQGTQVTVSS”, for which the “polyreactivity (PSR sort gate)” value is on record as “high polyreactivity”. The same measure for “QVQLVESGGGLVQAGGSLRLSCAASGRTLSGNAMGWYRQAPGKERELVASISTSTDGTYYADSVKGRFTISRDNAKNTVYLQMNSLKPEDTAVYYCTTTTYHWYYYRWEIFDYWGQGTQVTVSS”: “low polyreactivity”. For “QVQLVESGGGLVQAGGSLRLSCAASGRTLSVYAMGWYRQAPGKERELVAAITKSGGSTYYADSVKGRFTISRDNAKNTVYLQMNSLKPEDTAVYYCAAEGDWRGYALYNYWGQGTQVTVSS” the value was “low polyreactivity”. For “QVQLVESGGGLVQAGGSLRLSCAASGRTLSWYAMGWYRQAPGKEREFVAAITSSGASTYYADSVKGRFTISRDNAKNTVYLQMNSLKPEDTAVYYCAAEAVYVSSWYDEYYYFRYDYWGQGTQVTVSS” the value was “high polyreactivity”; for “QVQLVESGGGLVQAGGSLRLSCAASGRTLSYYAMGWYRQAPGKERELVAAIRHSAGSTYYADSVKGRFTISRDTAKNTVYLQMNSLKPEDTAVYYCAKKYYGHRYPSIYDYWGQGTQVTVSS”, “high polyreactivity”; for “QVQLVESGGGLVQAGGSLRLSCAASGRTLTAYAMGWYRQAPGKERELVAAISVTGDNTYYADSVKGRFTISRDNAKNTVYLQMNSLKPEDTAVYYCDARKQYKYGYWGQGTQVTVSS”, “low polyreactivity”.

For “QVQLVESGGGLVQAGGSLRLSCAASGRTLTGNAMGWYRPAPGKERELVAVISYSGTNTRYADSVKGRFTISRDNAKNTVYLQMNSLKPEDTAVYYCAADWLGISVVRDPFDHWGQGTQVTVSS”, the “polyreactivity (PSR sort gate)” value is recorded as “high polyreactivity”. For “QVQLVESGGGLVQAGGSLRLSCAASGRTLTGNAMGWYRQAPGKERELVAVISYSGTNTRYADSVKGRFTISRDNAKNTVYLQMNSLKPEDTAVYYCAARRPAPNYSSRYDYWGQGTQVTVSS” the value was “high polyreactivity”; for “QVQLVESGGGLVQAGGSLRLSCAASGRTLTIYAMGWYRQAPGKERELVATIRSSGSTNYADSVKGRFTISRDNAKNTVYLQMNSLKPEDTAVYYCAARGNTPRTRRYGYWGQGTQVTVSS”, “high polyreactivity”; for “QVQLVESGGGLVQAGGSLRLSCAASGRTLVHYAMGWYRQAPGKERELVAAISIGGDSTYAVSVKGRFTISRDNAKNTVYLQMNSLKPEDTAVYYCAASGWWDFFDPYFKFDYWGQGTQVTVSS”, “low polyreactivity”. The same measure for “QVQLVESGGGLVQAGGSLRLSCAASGRTLVWYTMGWYRQAPGKEREFVAVITTGSGSTYYADSVKGRFTISRDNAKNTVYLQMNSLKPEDTAVYYCNAGYGGYSYHYPPYEYWGQGTLVTVSS”: “low polyreactivity”; for “QVQLVESGGGLVQAGGSLRLSCAASGRTLVYYAMGWYRQAPGKERELVAAITWRGGRTYYADSVKGRFTISRDNAKNTVYLQMNSLKPEDTAVYYCAKDGGHTGDYWGQGTQVTVSS”: “low polyreactivity”; for “QVQLVESGGGLVQAGGSLRLSCAASGRTLYANTMGWYRPAPGKERELVATIPRDGSTNYADSVKGRFTISRDTAKNTVYLQMNSLKPEDTAVYYCNADLWVNLDNDDDYWGQGTQVTVSS”: “low polyreactivity”.

In the case of “QVQLVESGGGLVQAGGSLRLSCAASGRTLYHYGMGWYRQAPGKERELVAAINFSGGSTNYADSVKGRFTISRDNAKNTVYLQMNSLKPEDTAVYYCNNEGRPDRDYWGQGTQVTVSS”, the “polyreactivity (PSR sort gate)” value is listed as “low polyreactivity”. The same measure for “QVQLVESGGGLVQAGGSLRLSCAASGRTLYLYAMGWYRQAPGKERELVAAIDWRGTSTYYADSVKGRFTISRDNAKNTVYLQMNSLKPEDTAVYYCNAEGRWSSFTQRMDYWGQGTQVTVSS”: “low polyreactivity”; for “QVQLVESGGGLVQAGGSLRLSCAASGRTLYQYAMGWYRQAPGKERELVAVITSRGGSTNYADSVKGRFTISRDNAKNTVYLQMNSLKPEDTAVYYCAVLYPKYGKRYGYWGQGSQVTVSS”: “high polyreactivity”; for “QVQLVESGGGLVQAGGSLRLSCAASGRTLYRYAMGWYRQEPGKERELVAAIRSGGRTNYADSVKGRFTISRDNAKNTVYLQMNSLKPEDTAVYYCAARTLRYPSTYDYWGQGTQVTVSS”: “high polyreactivity”. For “QVQLVESGGGLVQAGGSLRLSCAASGRTLYYNPMGWYRQAPGKEREFVAAISYSGGGTYYADSVKGRFTISRDNAKNTVYLQMNSLKPEDTAVYYCNARIRRPYRVTAEYDYWGQGTQVTVSS” the value was “high polyreactivity”; for “QVQLVESGGGLVQAGGSLRLSCAASGRTLYYYAMGWYRQAPGKERELVAAITRSGGSTYYADSVKGRFTISRDNAKNTVYLQMISLKPEDTEVYYFNKYGYKGGLGYDYWGQGTQVTVSS”, “high polyreactivity”; for “QVQLVESGGGLVQAGGSLRLSCAASGRTNWTYVMGWYRQAPGKERELVAAISRSGSSTYYADSVKGRFTISRDNAKNTVYLQMNSLKPEDTAVYYCNNVDGTTLDDHYMDYWGQGTQVTVSS”, “low polyreactivity”.

Turning to “QVQLVESGGGLVQAGGSLRLSCAASGRTQTRYTMGWYRQAPGKERELVATISRSGGNTHYADSLKGRFTISRDNAKNTVYLQMNSLKPEDTEVYYCNAVRYAIYGYDYWGQGTQVTVSS”, the “polyreactivity (PSR sort gate)” value is on record as “high polyreactivity”. Turning to “QVQLVESGGGLVQAGGSLRLSCAASGRTSGFNTMGWYRQAPGKERELVAAISFSGGSTYYADSVKGRFTISRDNAKNTVYLQMNSLKPEDTAVYYCNALFRYLYRSGDYWGQGTQVTVSS”, the “polyreactivity (PSR sort gate)” value is on record as “low polyreactivity”. The same measure for “QVQLVESGGGLVQAGGSLRLSCAASGRTSGNNAMGWYRQAPGKERELVAAITRGGRTYYADSVKGRFTISRDNAKNTVYLQLNSLKPEDTAVYYCAARRYFYLFGYYYWGQGTQVTVSS”: “high polyreactivity”; for “QVQLVESGGGLVQAGGSLRLSCAASGRTSLGNAMGWYRQAPGKERELVAAISGSGGSTYYADSVKGRFTISRDNAKNTVYLQMNSLKPEDTAVYYCNKKLYGYQHYYWYYYWGQGTQVTVSS”: “high polyreactivity”.
